In the supplement of paper PMC11780869:

Test system: Bacillus subtilis
Experiment: cleaved RNA product abundance (RNA/gDNA barcode ratio) relative to median wild-type variant (ratio to wild type); higher = more accumulation of the downstream cleavage product
Outline: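 Reporter mRNAs based on truncated aprE or tetM carried barcoded, mutagenized RNase Y cleavage-site windows built from oligos with a 9% error rate and were integrated into the B. subtilis chromosome. Cultures grew in LB at 37°C from OD600 0.0003 to 0.3. Cleaved RNA was gel-selected, reverse transcribed and barcode-sequenced together with genomic DNA barcodes, and UMIs were collapsed. Cleaved product abundance is the per-construct ratio of RNA to gDNA barcodes, scaled to the median of constructs carrying the unmutated site.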

[1] = experiment (reporter, strain, medium): exp 2b: truncated aprE reporter, strain BJT200, cleavage site: cggR-gapA (positions -7 to +36 mutated)
[2] = experiment (reporter, strain, medium): exp 4a: truncated aprE reporter, strain BJT201 with 2% xylose (RNase J1 expressed), cleavage site: cggR-gapA (positions -7 to +36 mutated)
[3] = experiment (reporter, strain, medium): exp 8a: truncated aprE reporter, strain BJT201 with 2% xylose (RNase J1 expressed), cleavage site: glnRA (positions -5 to +31 mutated)
[4] = experiment (reporter, strain, medium): exp 6: tetM reporter, strain 168, cleavage site: cggR-gapA (positions -7 to +36 mutated)

Sequence	cleaved RNA product abundance [2]	cleaved RNA product abundance [3]	also measured
ACAGACGAAGGAGCCGCAAATAAGTTATTAAGGGATGAATAATCCCTAAATATAAATATCTCTCACTTATTTAAA	0.865		cleaved RNA product abundance [1]: 0.668
ACAGACGAAGGAGCCGCAAAGAATTTATTAAGGGATGAATAGTCCCTCAATATAAATATCTCTCACTTATTTAAA	0.713		
ACAGACGAAGGAGCCGCAAAGAAGTTATTAAGGTAGGAATAATCCCTCAATATAAATATCTCTCACTTATTTAAA	0.159		cleaved RNA product abundance [1]: 0.145
ACAGACGAAGGAGCCGCAAAGAAGTTATTAACGGATGAATAATCCCTCAATATATATATCTCTCACTTATTTAAA	0.152		cleaved RNA product abundance [1]: 0.158
CGACATGTCCCGCTTCTTTCATTAATCCATTAGCAACTGTTTTGCTATATACATTAACCTTTTAAGAGGAGGAAT		1.3	
CGACATGTCCCGCTTCTTTCATTAATCCGTTAGCAAATGTTTTGCTATATACATTTACCTTTTAAGAGGAGGAAT		1.17	
ACAGACGAAGGAGCCGCAAAGAAGTTATTAAGGGATGAATAATCCCTCAATGTAAATATCTCTCACTTATTTAAA	0.13		cleaved RNA product abundance [1]: 0.139; cleaved RNA product abundance [4]: 0.154
ACAGACGAAGGAGCCGCAAAGAAGTTATTAGGGGATTAATAATCCCTCAATATAAATATCTCTCACTTATTTAAA	0.866		
CGACATGTCCCGCTTCTTTCATTAATCCCTTAGAAACTGTTTTGCTATATACATTTACCTTTTAAGAGGAGGAAT		0.173	
ACAGACGAAGGAGCCGCAAAGAACTTATAAAGGGACGAATAATCCCTCAATATAAATATCTCTCACTTATTTAAA	0.162		
CGACATGTCCCGCTTCTTTCATTAATACGTTAGCAACTGTTTTGTTATATACATTTACCTTTTAAGAGGAGGAAT		0.372	
ACAGACGAAGGAGCCGCAAACAAGTTATTAAGGGATGAATAATCCCTCAAAATAAATATCTCTCACTTATTTAAA	0.257		cleaved RNA product abundance [1]: 0.194
ACAGACGAAGGAGCCGCAAAGAAGTTATTAAGGGATGCATCATCCCTCAATATAAATATCTCTCACTTATTTAAA	0.307		
ACAGACGAAGGAGCCGCAAAGAAGTTATTAATGGATTAATAATCCCTCAATATAAATATCTCTCACTTATTTAAA	0.242		cleaved RNA product abundance [1]: 0.149
CGACATGTCCCGCTTCTTTCATTAATCCGTTAGCAACTGTTTTGATATATACACTTACCTTTTAAGAGGAGGAAT		0.313	
ACAGACGAAGGAGCCGCAAAGCAGTTATTAAGGGATAAATAATCCCTCAATATAAATATCTCTCACTTATTTAAA	0.625		
ACAGACGAAGGAGCCGCAAAGAACGTATTAAGGGATGAATAATCCCTCAATATAAATATCTCTCACTTATTTAAA	0.724		
CGACATGTCCCGCTTCTTTCATTAATCAGTTAGCATCTGTTTTGCTATATACATTTACCTTTTAAGAGGAGGAAT		0.725	
CGACATGTCCCGCTTCTTTCATTAATCCGTTATCATCTGTTTTGCTATATACATTTACCTTTTAAGAGGAGGAAT		0.267	
ACAGACGAAGGAGCCGCAAAGAAGATATTAAGGGATGAATAAACCCTCAATATAAATATCTCTCACTTATTTAAA	0.574		
CGACATGTCCCGCTTCTTTCATTATTCCGTTAGCAACTGTTTTCATAAATACATTTACCTTTTAAGAGGAGGAAT		0.375	
CGACATGTCCCGCTTCTTTCATTAATCCGTTAGCAACTGATTTGCTATATACATTTACCCTTTAAGAGGAGGAAT		0.843	
ACAGACGAAGGAGCCGCAAAGAAGTTATTAAGGAAGGAATAATCCCTCAATATAAATATCTCTCACTTATTTAAA	0.233		
CGACATGTCCCGCTTCTTTCATTAATCCGTTAGTAACTGTTTTGCTATATACACTTACCTTTTAAGAGGAGGAAT		0.527	
ACAGACGAAGGAGCCGCAAAAAAGTTATTAAGGAATAAATAATCCCTCAATATAAATATCTCTCACTTATTTAAA			cleaved RNA product abundance [1]: 0.0862
ACAGACGAAGGAGCCGCAAAGAAGTTATTAATGGATGAATAATCCCTCAATATAAACATCTCTCACTTATTTAAA	0.116		
CGACATGTCCCGCTTCTTTCATTAATCCGATAGCAACTGTTTTACTATATACATTTACCTTTTAAGAGGAGGAAT		0.459	

Sequence	cleaved RNA product abundance [2]	cleaved RNA product abundance [3]	also measured
ACAGACGAAGGAGCCGCAAAGAAGTTATTAAGGGATGGATAATCCATCAATATAAATATCTCTCACTTATTTAAA	0.189		
CGACATGTCCCGCTTCTTTCATTAATCCGTTAGCAACTGTTTAACTATATACATTTACCTTTTAAGAGGAGGAAT		0.378	
ACAGACGAAGGAGCCGCAAAGAAGTTATTAAGGGATGCATAATCCCTCAATATAAACATCTCTCACTTATTTAAA	0.545		
ACAGACGAAGGAGCCGCAAAGAAGTTATTAAGGGATGAATAATCCCTCAATATTAATATCTCTCACTTATTTAAA	0.113		cleaved RNA product abundance [1]: 0.169; cleaved RNA product abundance [4]: 0.249
ACAGACGAAGGAGCCGCAAAGAAGTTATTTAGGCATGAATAATCCCTCAATATAAATATCTCTCACTTATTTAAA	0.135		cleaved RNA product abundance [1]: 0.0926
ACAGACGAAGGAGCCGCAAAGAAGTTATTAAGGGATGAATAATCCCTAAATATTAATATCTCTCACTTATTTAAA			cleaved RNA product abundance [1]: 0.189
ACAGACGAAGGAGCCGCAAAGAAGTTATTAAGGGATTAATAATCCCTCAATATATATATCTCTCACTTATTTAAA	0.957		
ACAGACGAAGGAGCCGCAAAAAAGTTATTAAGGGATGAATAATCCCTCAATATAAATACCTCTCACTTATTTAAA	0.493		
CGACATGTCCCGCTTCTTTCATTAATCCATTAGCAACTATTTTGCTATATACATTTACCTTTTAAGAGGAGGAAT		0.423	
ACAGACGAAGGAGCCGCAAAGAAGTTATTAAGGCATGAAAAATCCCTCAATATAAATATCTCTCACTTATTTAAA	0.0945		cleaved RNA product abundance [1]: 0.0832
ACAGACGAAGGAGCCGCAAAGAAGTTATTAAGGGATGAATAATCCCTAAATATACATATCTCTCACTTATTTAAA	0.465		cleaved RNA product abundance [1]: 0.498
ACAGACGAAGGAGCCGCAAAGAAGTTATTAAGGGTTGAATAATTCCTCAATATAAATATCTCTCACTTATTTAAA	0.1		
ACAGACGAAGGAGCCGCAAAGAAGTTATTAAGGGATGTATAATCCCTCAGTATAAATATCTCTCACTTATTTAAA	0.237		cleaved RNA product abundance [1]: 0.218
ACAGACGAAGGAGCCGCAAAGAAGTTATTAAGGGATGAATAACCCCTTAATATAAATATCTCTCACTTATTTAAA	0.505		cleaved RNA product abundance [1]: 1.34
CGACATGTCCCGCTTCTTTCATTAATCCGTTAGCAACTGTTTTGCTTTATACATTTAACTTTTAAGAGGAGGAAT		0.346	
ACAGACGAAGGAGCCGCACAGAAGTTATTAACGGATGAATAATCCCTCAATATAAATATCTCTCACTTATTTAAA	0.197		cleaved RNA product abundance [1]: 0.121
ACAGACGAAGGAGCCGCAAATAAGATATTAAGGGATGAATAATCCCTCAATATAAATATCTCTCACTTATTTAAA	1.08		cleaved RNA product abundance [4]: 0.738
CGACATGTCCCGCTTCTTTCATTAATCCGTTAGCAACTGTTTTGCTATATACATATTCCTTTTAAGAGGAGGAAT		0.511	
ACAGACGAAGGAGCCGCAAAGAAGTTATTAACGGAAGAATAATCCCTCAATATAAATATCTCTCACTTATTTAAA	0.152		
ACAGACGAAGGAGCCGCAGAGAAGTTATTAAAGGATGAATAATCCCTCAATATAAATATCTCTCACTTATTTAAA	0.227		cleaved RNA product abundance [1]: 0.128
CGACATGTCCCGCTTCTTTCATTAATCTGTTAGCAACAGTTTTGCTATATACATTTACCTTTTAAGAGGAGGAAT		0.686	
ACAGACGAAGGAGCCGCAAAGAAGTTATTAAGGGCTGAACAATCCCTCAATATAAATATCTCTCACTTATTTAAA	0.156		
CGACATGTCCCGCTTCTTTCATTAATCCGTTAGCAACCGTTTTGCTATATACATTTACATTTTAAGAGGAGGAAT		0.523	
ACAGACGAAGGAGCCGCAAAGTAGTTATTAAGGGATGAATAATCCCTCATTATAAATATCTCTCACTTATTTAAA	0.396		
CGACATGTCCCGCTTCTTTCATTAATCCGTTATCAACTGTTTTGCTATATACATTAACCTTTTAAGAGGAGGAAT		0.283	
CGACATGTCCCGCTTCTTTCATTATTCCGTTAGCAACTGTTTTGCTATATACATTTCCCTTTTAAGAGGAGGAAT		1.01	
ACAGACGAAGGAGCCGCAAAGAAGTTATTAAGGGATCAATAATCCATCAATATAAATATCTCTCACTTATTTAAA	0.312		
